Source: patent US20190106487A1 (Sanofi, published 2019)
Numbering of substitutions follows the chain as printed.

T1: rhIL-1RAcP/Fc Chimera (human, UniProt Q9NPH3 21-359)
T1 construct: also called P013_03; P013-03
T1 sequence (looked up): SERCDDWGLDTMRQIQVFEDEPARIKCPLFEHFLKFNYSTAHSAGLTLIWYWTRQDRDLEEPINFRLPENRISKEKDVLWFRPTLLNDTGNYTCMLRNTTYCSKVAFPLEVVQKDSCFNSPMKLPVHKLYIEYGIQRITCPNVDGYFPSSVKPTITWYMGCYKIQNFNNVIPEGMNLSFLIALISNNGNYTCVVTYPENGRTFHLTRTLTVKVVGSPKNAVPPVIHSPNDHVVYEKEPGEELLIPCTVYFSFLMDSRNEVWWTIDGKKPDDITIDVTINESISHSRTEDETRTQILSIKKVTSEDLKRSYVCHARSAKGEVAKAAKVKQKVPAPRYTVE

T2: mIL1RAcP-Fc (murine, UniProt Q61730 21-359)
T2 construct: also called P013_04; P013-04
T2 sequence (looked up): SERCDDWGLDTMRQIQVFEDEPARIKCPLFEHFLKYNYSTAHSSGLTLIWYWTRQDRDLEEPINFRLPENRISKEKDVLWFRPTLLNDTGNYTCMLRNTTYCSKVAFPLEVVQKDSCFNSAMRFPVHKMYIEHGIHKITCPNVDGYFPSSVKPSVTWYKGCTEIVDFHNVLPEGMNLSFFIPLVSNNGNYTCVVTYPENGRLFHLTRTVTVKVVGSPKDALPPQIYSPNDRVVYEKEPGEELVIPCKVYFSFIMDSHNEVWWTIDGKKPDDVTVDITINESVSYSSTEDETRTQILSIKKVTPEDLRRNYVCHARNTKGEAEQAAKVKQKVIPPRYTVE

T3: human IL-1RAcP on 293T/17-FR cells (human, UniProt Q9NPH3 21-570)
T3 sequence (looked up): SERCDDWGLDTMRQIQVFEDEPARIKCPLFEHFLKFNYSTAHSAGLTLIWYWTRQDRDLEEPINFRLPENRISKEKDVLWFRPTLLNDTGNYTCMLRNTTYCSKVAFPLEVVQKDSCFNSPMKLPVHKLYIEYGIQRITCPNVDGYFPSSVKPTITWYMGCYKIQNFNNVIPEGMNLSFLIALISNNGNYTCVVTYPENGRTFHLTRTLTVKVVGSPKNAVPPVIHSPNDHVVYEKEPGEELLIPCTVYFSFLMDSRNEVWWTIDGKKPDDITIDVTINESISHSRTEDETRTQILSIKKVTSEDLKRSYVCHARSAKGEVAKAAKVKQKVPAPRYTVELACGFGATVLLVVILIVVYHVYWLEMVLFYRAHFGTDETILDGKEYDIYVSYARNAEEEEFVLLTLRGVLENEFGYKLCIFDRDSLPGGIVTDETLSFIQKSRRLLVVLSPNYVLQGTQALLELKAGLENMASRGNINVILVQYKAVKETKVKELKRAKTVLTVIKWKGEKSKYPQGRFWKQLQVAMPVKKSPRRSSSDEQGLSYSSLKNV

B1: P013.S.01.B.A04 (antibody, V domains shown)
VH: QEQLEESGGGLVKPGGTLTLTCKASGIDFSSYYYMCWVRQAPGKGLEWIACIFIGYGDVTWYASWAKGRFTISKASSTTVTLQMTSLTAADTATYFCARALGSSGYRVNLWGPGTLVTVSS
VL: ALVMTQTPSSVSAAVGGTVTINCQASENIYSSLAWYQQKPGQPPKLLIYDASDLASGVPSRFKGSGSGKEFTLTISDLESDDAATYYCQQGYYSGGTDNDVFGGGTEVVVK
notes: rabbit monoclonal antibody; also called P013.A.00085.C03
B2: P013.S.01.B.A03 (antibody, V domains shown)
VH: QEQLEESGGDLVQPEGSLTVTCTASGFSFSFGYYMCWVRQAPGKGLEWIACIYGDSSDTLYANWAKGRFTVSKTSSTTVTLQMTSLTAADTATYFCARYPGGSYYNLWGPGTRVTVSS
VL: ALVMTQTPASVEAAVGGTVTIKCQASQTISINLAWYQQKPGQRPKLLIYYASTLASGVPSRFSGSGSGTEFTLTISGVQSDDAATYYCQQGYTEDNIDNTFGGGTEVVVK
notes: rabbit monoclonal antibody; also called P013.A.00088.A07
B3: P013.S.01.B.F05 (antibody, V domains shown)
VH: QSLEESGGRLVTPGGSLTLTCTVSGIDLSNYAMSWVRQAPGKGLEWIGSVISGGSTYYATWAKGRFTISKTSTTVDLKMTSLTTEDTATYFCARGCPGYNGDKYALDLWGPGTVVTVSS
VL: AFEMTQTPSSVSEPVGGTVTIKCQASQSIHNYLSWYQQKPGQRPKLLIYRASTLASGVPSRFKGSGSGTEFTLTISGVESADAATYYCQQGATSYDIDNAFGGGTEVVVK
notes: rabbit monoclonal antibody; also called P013.A.00087.C06
B4: P013.S.01.B.F04 (antibody, V domains shown)
VH: LEQSGGGAEGGLVKPGGSLELCCKASGFSLSTSYWRCWVRQAPGKGLEWIGCIYAGSSDATYYANWVNGRFTLSRDIDQSTGCLQLNSLTAADTAMYYCASGVGFGYFNLWGQGTLVTVSS
VL: ALVMTQTPSPVSAAVGGTVTINCQASEDIYSNLAWFQQKPGQPPKLLIYDASTLASGVPSRFSGSGSGTEFTLTISGLQSDDAATYYCLGVYTHISADNAFGGGTEVVVK
notes: rabbit monoclonal antibody; also called P013.A.00133.A12
B5: P013.S.02.B.D04 (antibody, V domains shown)
VH: QSLEESGGDLVQPGGSLTLTCKASGFSFSASYWICWVRQAPGKGLEWIGCIYIGGGGRYYASWAKGRFTISKTSSTTVTLQMTSLTAADTATYFCARDPVTSGSDYVYDLWGPGTLVTVAS
VL: AYDMTQTPASVEVAVGGTVTIKCQASESISTWLAWYQQKPGQPPNLLIYRASTLASGVPSRFYGSGYGTEFTLTISGVESADAATYYCQQGYTVNNIDNVFGGGTEVVVK
notes: rabbit monoclonal antibody; also called P013.A.00086.A06
B6: P013.S.02.B.G03 (antibody, V domains shown)
VH: QSVEESGGRLVTPGTPLTLTCTVSGFSLSSYGMIWVRQAPGEGLEWIGFIGRGGATWYASWVKGRFTISKTSTTVDLKITSPTASDTATYFCARDGDSSDYYAFNLWGQGTLVTVSS
VL: DVVMTQTPASVSEPVGGTVTIKCQASQNIGSNLAWYQQRSGQPPKLLIYGASTLASGVPSRFSGSGSGTEFTLTISGVQSADAATYFCQCSGYDITGVFPFGGGSEVVVK
notes: rabbit monoclonal antibody; also called P013.A.00014.D07
B7: P013.S.02.B.H02 (antibody, V domains shown)
VH: B6 VH with V3L, Y31C, G32A, E42K, A55S, K63N, A84T, S85E, S98F, A103T
VL: B6 VL with R39K, S40P, A84T, F87Y, I95T, K110R
notes: rabbit monoclonal antibody; also called P013.A.00015.B10
B8: P013.S.01.B.B05 (antibody, V domains shown)
VH: QSLEESGGRLVTPGTPLTLTCTASGFSLSSYYMSWVRQAPGKGLEWVGIISGSASTYYATWAKGRFTISKTSTTVDLKIASPTTEDTATYFCARTHYAAVAGYGYASRLDLWGQGTLVTVSS
VL: AIEMTQSPPSLSASVGETVRIRCLASEDIYSGISWYQQKPGKPPTLLIYAASNLESGVPPRFSGSGSGTDYTLTIGGVQAEDAATYYCLGGYSYSNTGPTFGAGTKVEIK
notes: rabbit monoclonal antibody; also called P013.A.00030.D07
B9: P013.S.02.B.G01 (antibody, V domains shown)
VH: QSVEESGGRLVTPGGSLTLTCKVSGFSLSDYDIYWVRQAPGKGLEWIGVIDIENSVYYPTWAKGRFTISKTSTTVDLKITSPTTEDTATYFCARGDYIMTLDLWGQGTLVTVSS
VL: AAVLTQTPSPVSAAVGGTVTISCQASQSVYKNNRLAWYQQKPGQPPKLLIYLASTLASGVPSRFKGSGSGTQFTLTISDLESDDAATYYCAGGYSTISENAFGGGTEVVVK
notes: rabbit monoclonal antibody; also called P013.A.00015.G07

Target: T1, rhIL-1RAcP/Fc Chimera
Assay: ELISA, recombinant purified mAb

Binder | EC50 [µg/mL]
B1 | 0.027
B2 | 0.225
B3 | 0.052
B4 | 0.046

Target: T2, mIL1RAcP-Fc
Assay: ELISA, primary supernatant, coated mu-IL-1RAcP-Fc

Binder | mu-IL1RaP ELISA (OD)
B1 | 0
B2 | 0
B3 | 1.2
B5 | 0
B6 | 1.1
B7 | 0.8
B4 | 0.3
B8 | 0.1
B9 | 0.4

Target: T3, human IL-1RAcP on 293T/17-FR cells
Assay: cell-based or functional assay

Binder | functional reporter gene assay (% inhibition), 0.04 µg/mL mAb [%] | functional reporter gene assay (% inhibition), 0.2 µg/mL mAb [%] | functional reporter gene assay (% inhibition), 1 µg/mL mAb [%] | functional reporter gene assay (% inhibition), 5 µg/mL mAb [%] | primary supernatant functional assay (% inh.), NF-kB luciferase reporter [%]
B1 | 47 | 89 | 97 | 98 | 74
B2 | 77 | 94 | 98 | 99 | 95
B3 | 44 | 54 | 70 | 80 | 89
B5 | 4 | 19 | 47 | 87 | 88
B6 | 6 | 0 | 5 | 17 | -39
B7 | 25 | -2 | 28 | 28 | 36
B4 | 38 | 58 | 95 | 96 | 97
B8 | 52 | 81 | 93 | 96 | 85
B9 | 1 | 1 | 10 | -5 | -36

Target: T1, rhIL-1RAcP/Fc Chimera
Assay: ELISA, primary supernatant, coated hu-IL-1RAcP-Fc
Description: Microtiter plates were coated IL-1RACP and/or IL12Rβ1 protein (recombinant Fc chimeric conjugates of human IL-1RACP or IL12Rβ1). After a blocking process, specific antibodies from B-cell supernatants bind to the targets and are then detected by a POD-labeled anti-rabbit IgG antibody. The IL12Rβ1 binding was used as a counterscreen. IL-1RACP protein was tagged with a linker, huFc and His like the IL12Rβ1 protein. Antibodies which bind to the tag were positive in both assays, whereas antigen specific antibodies just bound to IL-1RACP and not to IL12Rβ1.
12.5 μL 0.5 μg/mL IL-1RACP protein in PBS was transferred to a microtiter plate, incubated and washed 3× with Wash Buffer. 90 μL Block Buffer was added to each well, incubated and washed. 12.5 μl Standard Antibody (rabbit mAb against IL-1RAcP, anti IL12Rbeta1 antibody: IL-12Rbeta1 antibody; GeneTex; Cat. No. GTX103917) or sample diluted in ELISA buffer was added, incubated and washed. 12.5 μl 1:5000 POD-Antibody (Anti-rabbit IgG, peroxidase-linked species-specific Fab2 fragment (from donkey) (ECL); assay dilution: 1:5000) in Elisa Buffer was added, incubated and washed. 15 μl TMB was added and 15 μl HCl was added after sufficient development. Absorbance (Optical Density O.D.) was read at 450 nm/620 nm.

Binder | hu-IL1RaP ELISA (OD)
B1 | 3.4
B2 | 3.3
B3 | 3.6
B5 | 3.6
B6 | 1.4
B7 | 3
B4 | 3.6
B8 | 3.3
B9 | 2.2
